Results published in a protein production outcome set (Wang et al. 2014).

Test: label from the status in PepcDB records

MQDERWNHPLYTTTAINDEELEGHAYIPGGLKVQTSSPMNDHPGTNPEQLLGLSLSTCLEATLEAVEKEHGLPHTGAVRVKVAFIGARAEYQFLVHAQVMVKGVDFDTAKAFTNEIENRCPVSKLLKNSGNYTIETVTDFKD
protein production: not failed

MKIEERKQYVKIEVQEGDTLWELADRIKGGKTADKHKFIEWVADKNNLPTSVIKPGDVLILPVAKQHSDQYQLAVVELEHHHHHH
protein production: not failed

MTEVYDLEITTNATDFPMEKKYPAGMSLNDLKKKLELVVGTTVDSMRIQLFDGDDQLKGELTDGAKSLKDLGVRDGYRIHAVDVTGGNEDFKDESMVEKYEMSDDTYGKRTDSVRAWKKKMQEEQGSAAPMENESDKLNEEAAKNIMVGNRCEVTVGAQMARRGEVAYVGATKFKEGVWVGVKYDEPVGKNDGSVAGVRYFDCDPKYGGFVRPVDVKVGDFPELSIDEI
protein production: not failed

MKKVCLSLLMGLMVQMTFGQTLEKMQWFNEPEQWEIKNNVLSMSVTPQSDYWRISHYGFTVDDAPFYYATYGGEFEAKVKVVGEYKERFDQAGLMLRIDHENYIKAGIEFVDGKFNLSTVVTHKTSDWSVITLDKTVPYIWIKAVRRLDAVEIFYSFDDKTYTLMRNAWLQDHIPVKVGLMAACPDGSGFNAKFEYFQVKHLPDQRRVEWLKKNAELEHHHHHH
protein production: failed

MHLGVIGATGTIGSRVVTEALARGHHVTAFTRDSTQIDEDRGNVVWKSLDVLDAASVAAGISGLDVLISGFQPGNAAKDIADTVARSIADPTVYATAARSLLKALESHPRTRLIVIGGAGSLEIEPGVVRADSDELLHSSLDALGLPRQYAAAVRGHRDALNVLRTSNRLWTYFSPAEDIAPGERTGRFRTGGDQPVLDAEGRSRISVEDAAVALVDEAELPRFVQRRFTIGY
protein production: failed

MNQEKLLALMMDLHQDGARQGPGSETETLRALELTRIDPLAKLQVADIGCGTGASTLVLASKLQNAQITAIDIFPEFLDVLSTRAKVMGYSEKIETLTESMDKLSFADESLDLIWSEGAIYNLGFAQGIECWKPMLKTGGVLAVSEITWLNPLPPEEIRQHWNTEYPEIATASEKIAILEHGGYDLIGYFILPSTNWLDSYYTPVEERIHDFLKRHRGDLEAEELIKMERREMDLYSRFKNWFSYGFYVARKR
protein production: failed

MSTLQRRRVNRADSGDTSSIHSSANNTKGDKIANIAVDGDDDNGTNKKIAYDPEESKLRDNINIPTLTLMEEVLLMGLRDREGYLSFWNDSISYALRGCIIIELALRGKIRILDDSARKRFDLSERLIEVIDSSKTGEVLLDETLQLMKNDEPLSISNWIDLLSGETWNLLKINYQLKQVRERLAKGLVDKGVLRTEMKNFFLFDMATHPIADASCKEAIKRRVLSVLVSRNMELSYNEYFPETTSFKIIRTLALICGSYGANVLENVLTTLEYEKRDKAISRAEEIMAQFSQYPFDLEKETELGVSVNLNKEVKEEIENNPGHDLQLEVIAGVFEVFSRMDMLL
protein production: failed

MEPEEERIRYSQRLRGTMRRRYEDDGISDDEIEGKRTFDLEEKLHTNKYNANFVTFMEGKDFNVEYIQRGGLRDPLIFKNSDGLGIKMPDPDFTVNDVKMCVGSRRMVDVMDVNTQKGIEMTMAQWTRYYETPEEEREKLYNVISLEFSHTRLENMVQRPSTVDFIDWVDNMWPRHLKESQTESTNAILEMQYPKVQKYCLMSVRGCYTDFHVDFGGTSVWYHIHQGGKVFWLIPPTAHNLELYENWLLSGKQGDIFLGDRVSDCQRIELKQGYTFVIPSGWIHAVYTPTDTLVFGGNFLHSFNIPMQLKIYNIEDRTRVPNKFRYPFYYEMCWYVLERYVYCITNRSHLTKEFQKESLSMDLELNGLESGNGDEEAVDREPRRLSSRRSVLTSPVANGVNLDYDGLGKTCRSLPSLKKTLAGDSSSDCSRGSHNGQVWDPQCAPRKDRQVHLTHFELEGLRCLVDKLESLPLHKKCVPTGIEDEDALIADVKILLEELANSDPKLALTGVPIVQWPKRDKLKFPTRPKVRVPTIPITKPHTMKPAPRLTPVRPAAASPIVSGARRRRVRCRKCKACVQGECGVCHYCRDMKKFGGPGRMKQSCVLRQCLAPRLPHSVTCSLCGEVDQNEETQDFEKKLMECCICNEIVHPGCLQMDGEGLLNEELPNCWECPKCYQEDSSEKAQKRKMEESDEEAVQAKVLRPLRSCDEPLTPPPHSPTSMLQLIHDPVSPRGMVTRSSPGAGPSDHHSASRDERFKRRQLLRLQATERTMVREKENNPSGKKELSEVEKAKIRGSYLTVTLQRPTKELHGTSIVPKLQAITASSANLRHSPRVLVQHCPARTPQRGDEEGLGGEEEEEEEEEEEDDSAEEGGAARLNGRGSWAQDGDESWMQREVWMSVFRYLSRRELCECMRVCKTWYKWCCDKRLWTKIDLSRCKAIVPQALSGIIKRQPVSLDLSWTNISKKQLTWLVNRLPGLKDLLLAGCSWSAVSALSTSSCPLLRTLDLRWAVGIKDPQIRDLLTPPADKPGQDNRSKLRNMTDFRLAGLDITDATLRLIIRHMPLLSRLDLSHCSHLTDQSSNLLTAVGSSTRYSLTELNMAGCNKLTDQTLIYLRRIANVTLIDLRGCKQITRKACEHFISDLSINSLYCLSDEKLIQKIS
protein production: failed

MHQQGIRMEGMSDLNALNLEPGEVVGGYTLISRLGSGAMGSVWRVRDDGGTTYAMKILRDSLADESVAGSGSASAALHDPDLKPDVTPRERLRREAMALKKVNHPGVCGIVDMELDDTLAFIVTELIEGKNLKDDVAANGRYVGDDLERLARKLIDATKAVHAAGIVHRDIKPTNVMVSAAGPVLVDFGIAMGEGESHVTRTGLVMGTPGFIAPEIIDGAESDEATDWWSVASVLAFAATGAPVFGTKPMMAVLEREASGNANLSGLPAGTLAAFRSALDPDRTKRCTPDQLLNAIALDALNPAVWQGAQAGPFAAGAIAGGANTIAPAAGTAGETEAVPPFGAAGHVDRNNPRTIWRATDEAAQALTDEATTTLPDSAAPAISDEATVQLAGATVPLTEATTPLTSEATTPLTPVTGEPLLAPTTPLAERTAVLPSPQPTAFPPTPPVQLVGGMAQNGWNPAAADVQATVVDPNIRPALQRVIDQTAQFAPTEALVQQPLAPNPADVKRGEYLQRGVFPLLLLALPLAVLAASMPLIALLAAAAMLWLLLTLAYNTEPQLEREGRRGGERKSSDTWIRAATLPWHIVKALLLSLPRMVLLIVIAIAGTAAATMALALPTQTVYWYFTPERGVPIPLLNDVPLSASGLALGGFMAIGWLVTVFGPQAMMARLGAGVLRGLNPRQAQSPMPLAYDGSPAVPSPAAMAPASATRGKRSTMLFTIWIIVTLALCTLPLTGMAIDWTPLV
protein production: failed

MLRVIVESASNIPKTKFGKPDPIVSVIFKDEKKKTKKVDNELNPVWNEILEFDLRGIPLDFSSSLGIIVKDFETIGQNKLIGTATVALKDLTGDQSRSLPYKLISLLNEKGQDTGATIDLVIGYDPP
protein production: not failed

MLYHKLGYVQSAQQTLREVMTIWQAWFKALKAYRKNPARFTGRPRMPRYLHKSQRHTFYVTNQNAQIVRKDEQDKGYLVIKKLGIKIKLASADIKKIGRVAFKPVANGYKVIVPYKTKQKIKYLPDNGKYLGIDPGIDNAFACVSNTGARPLLINGRGIKSVNQYYNKKRSELKRLQAKYHQLEKLISTKQGLKPVYQETKAMKRITAWRNDKIRQFAHKASKRIVDYALSCDANTIVIGKNKSWKRSFEMGKRNNQNFIGIPHQVMIDMIKYKANLAGITVIQTNESYTSQISALDHEQPCWNNGNKSRKKQRKSPVNRRIKRGLFKADNGTLINADINGALQIIKKVFPNFSLDDGIVGAVLRPFKWSPTI
protein production: failed

MKSYQPKSLLNDLQYYITPPHDCSYLDNKSARMVFLDPIHRIDVVTLSELSRVGFRRSGDFVYRPECHLCRQCLSCRVPVHDFNMNSLQKKAWKRNQDLRMSIVPTHAATSVHYQLYERYINERHADGDMFPPSLDQFEKFLVHSCTESFFLELWKDDRLICVSTCDLMDDGLSAVYTFFDPDENRRSLGVFAILKQLEYVKSIDLDYLYLGYWVPHSQKMNYKSQYIPLELLLDGQWRRLNRALSQEEISQLGESLMTILPSEWNSMIIKLEHHHHHH
protein production: failed
